Laboratory results published in US9492508B2, “Parathyroid hormone analogs and uses thereof” (The General Hospital Corporation, priority 2010, dated 2016).
Square brackets hold non-standard residues; d marks the D form. Ends that are not written are not given here. Peptide text beside a SMILES is read from it. hArg = N=C(N)NCCCC[C@H](N)C(=O)O; Aib = CC(C)(N)C(=O)O

B1: Aib-SP-PTH-AAK ([Ala1,12,18,22,Aib3,Gln10,Har11,Trp14,Lys26]PTH(1-14)/PTHrP(15-36)) (peptide)
peptide: AV[Aib]EIQLMHQ[hArg]AKWIQDARRRAFLHKLIAEIHTAEI-NH2
modifications: N-terminus assumed
SMILES: CC[C@H](C)[C@H](NC(=O)[C@H](CCC(=O)O)NC(=O)[C@H](C)NC(=O)[C@@H](NC(=O)[C@H](Cc1c[nH]cn1)NC(=O)[C@@H](NC(=O)[C@H](CCC(=O)O)NC(=O)[C@H](C)NC(=O)[C@@H](NC(=O)[C@H](CC(C)C)NC(=O)[C@H](CCCCN)NC(=O)[C@H](Cc1c[nH]cn1)NC(=O)[C@H](CC(C)C)NC(=O)[C@H](Cc1ccccc1)NC(=O)[C@H](C)NC(=O)[C@H](CCCNC(=N)N)NC(=O)[C@H](CCCNC(=N)N)NC(=O)[C@H](CCCNC(=N)N)NC(=O)[C@H](C)NC(=O)[C@H](CC(=O)O)NC(=O)[C@H](CCC(N)=O)NC(=O)[C@@H](NC(=O)[C@H](Cc1c[nH]c2ccccc12)NC(=O)[C@H](CCCCN)NC(=O)[C@H](C)NC(=O)[C@H](CCCCNC(=N)N)NC(=O)[C@H](CCC(N)=O)NC(=O)[C@H](Cc1c[nH]cn1)NC(=O)[C@H](CCSC)NC(=O)[C@H](CC(C)C)NC(=O)[C@H](CCC(N)=O)NC(=O)[C@@H](NC(=O)[C@H](CCC(=O)O)NC(=O)C(C)(C)NC(=O)[C@@H](NC(=O)[C@H](C)N)C(C)C)[C@@H](C)CC)[C@@H](C)CC)[C@@H](C)CC)[C@@H](C)CC)[C@@H](C)O)C(N)=O
notes: Synthetic hybrid analog of human PTH(1-14) and human PTHrP(15-36); also called Super-potent Aib-AAK PTH; M-PTH(1-14)AAK-/rP(15-36)NH2
B2: SP-PTH ([Ala1,3,12,Gln10,Arg11,Trp14]PTH(1-14)/PTHrP(15-36)) (peptide)
peptide: AVAEIQLMHQRAKWIQDLRRRFFLHHLIAEIHTAEI-OH
notes: Synthetic hybrid analog of human PTH(1-14) and human PTHrP(15-36); also called Super-potent PTH; Mc-PTH(1-14)/rP(15-36)OH
B3: SP-PTH-AAK ([Ala1,3,12,18,22,Gln10,Arg11,Trp14,Lys26]PTH(1-14)/PTHrP(15-36)) (peptide)
peptide: AVAEIQLMHQRAKWIQDARRRAFLHKLIAEIHTAEI-OH
notes: Synthetic hybrid analog of human PTH(1-14) and human PTHrP(15-36); also called Mc-PTH(1-14)/AAK-rP(15-36)OH; SP-AAK
B4: M-PTH(1-34) (peptide)
peptide: AV[Aib]EIQLMHQ[hArg]AKWLNSMRRVEWLRKKLQDVHNF-NH2
modifications: N-terminus assumed
SMILES: CC[C@H](C)[C@H](NC(=O)[C@H](CCC(=O)O)NC(=O)C(C)(C)NC(=O)[C@@H](NC(=O)[C@H](C)N)C(C)C)C(=O)N[C@@H](CCC(N)=O)C(=O)N[C@@H](CC(C)C)C(=O)N[C@@H](CCSC)C(=O)N[C@@H](Cc1c[nH]cn1)C(=O)N[C@@H](CCC(N)=O)C(=O)N[C@@H](CCCCNC(=N)N)C(=O)N[C@@H](C)C(=O)N[C@@H](CCCCN)C(=O)N[C@@H](Cc1c[nH]c2ccccc12)C(=O)N[C@@H](CC(C)C)C(=O)N[C@@H](CC(N)=O)C(=O)N[C@@H](CO)C(=O)N[C@@H](CCSC)C(=O)N[C@@H](CCCNC(=N)N)C(=O)N[C@@H](CCCNC(=N)N)C(=O)N[C@H](C(=O)N[C@@H](CCC(=O)O)C(=O)N[C@@H](Cc1c[nH]c2ccccc12)C(=O)N[C@@H](CC(C)C)C(=O)N[C@@H](CCCNC(=N)N)C(=O)N[C@@H](CCCCN)C(=O)N[C@@H](CCCCN)C(=O)N[C@@H](CC(C)C)C(=O)N[C@@H](CCC(N)=O)C(=O)N[C@@H](CC(=O)O)C(=O)N[C@H](C(=O)N[C@@H](Cc1c[nH]cn1)C(=O)N[C@@H](CC(N)=O)C(=O)N[C@@H](Cc1ccccc1)C(N)=O)C(C)C)C(C)C
notes: M residues: Ala1,12, Aib3, Gln10, homoArg11, Trp14, Arg19; also called M-PTH(1-34).NH2; MGH# 1577

Legend:
rat PTHR1 (RG) = target: T1, rat PTHR1 (RG) (Rattus norvegicus, UniProt P25961); experiment: Competition binding, RG conformation of rat PTHR1; settings: RG conformation; mean of 4 experiments; read-out: Binding rat PTHR1 IC50 (Log M) RG (converted)
T1 construct: expressed in transfected cells
T1 sequence (P25961 27-591): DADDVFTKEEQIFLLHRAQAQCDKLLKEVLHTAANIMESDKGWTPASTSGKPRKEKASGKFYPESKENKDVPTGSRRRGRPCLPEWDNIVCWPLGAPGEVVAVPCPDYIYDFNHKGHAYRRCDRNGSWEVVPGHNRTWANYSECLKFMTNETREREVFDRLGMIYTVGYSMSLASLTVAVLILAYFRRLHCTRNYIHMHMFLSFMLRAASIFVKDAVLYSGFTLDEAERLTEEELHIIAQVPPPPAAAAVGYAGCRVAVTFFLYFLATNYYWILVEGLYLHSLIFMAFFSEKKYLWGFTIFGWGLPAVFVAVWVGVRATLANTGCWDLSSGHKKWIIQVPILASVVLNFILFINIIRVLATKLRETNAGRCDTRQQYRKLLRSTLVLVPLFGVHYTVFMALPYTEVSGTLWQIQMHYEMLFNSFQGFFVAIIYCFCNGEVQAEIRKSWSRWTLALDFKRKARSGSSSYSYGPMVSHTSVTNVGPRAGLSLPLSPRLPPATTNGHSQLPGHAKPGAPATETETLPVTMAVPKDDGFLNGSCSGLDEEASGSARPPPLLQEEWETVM
Source text: (§1) Briefly, the R^0 form of the receptor can be favored by addition of the non-hydrolyzable nucleotide analog GTPγS. The RG form can be favored, for example, by co-transfection of cells with a negative dominant Gαs subunit. […] Data are means of four experiments, each performed in duplicate. Curves were fit to the data using Graph-Pad Prism 4.0.

MC3T3-E1 cells [1] = experiment: cAMP response following ligand wash-out in MC3T3-E1 cells; assay type: cell-based, mouse; settings: 100 nM ligand 5 min, then wash-out; FIGS. 7A, 7B
Procedure: Cells were treated at room temperature with vehicle or the indicated ligand (100 nM) for five minutes; for each ligand duplicate wells were used to obtain the initial (maximum cAMP values); in these wells, cells were co-incubated with ligand and IBMX. After five minutes of initial treatment, the buffer was removed, and, for the initial wells, the reactions were terminated by addition of 50 mM HCl. In the other wells, the cells were rinsed three times with buffer, and incubated in buffer for varying times, as indicated on the abscissa; after which the buffer was replaced by a buffer containing IBMX, and the cells were incubated for another five minutes. After that, the buffer was removed and the reactions were terminated by addition of 50 mM HCl. The cAMP contents of the HCl lysates were then determined by RIA.

[2] = Blood Ca++ responses in mice; assay type: in vivo, mice (C57 BL/6); settings: 5 nmol/kg s.c., 4, 6, 8 and 24 hours
Procedure: Blood Ca^++ responses in mice were also assayed. Mice (C57 BL/6) were injected subcutaneously with either vehicle or the indicated ligand to give a final dose of 5 nmol/kg body weight, and blood was withdrawn via the tail at times after injection and assessed for Ca^++ concentration using a Bayer Rapid Lab model 348 blood analyzer. […] A similar experiment using 10 nmol/kg by intravenous injection was also conducted with similar results (FIGS. 8C and 8D).

human PTHR1 (R0) = target: T2, human PTHR1 (R0) (Homo sapiens, UniProt Q03431); experiment: Competition binding, R0 conformation of human PTHR1 (COS-7 membranes, 125I-PTH(1-34) tracer, GTPγS)
T2 construct: expressed in transfected cells; host or cells: COS-7 cells (membranes)
T2 sequence (Q03431 27-593): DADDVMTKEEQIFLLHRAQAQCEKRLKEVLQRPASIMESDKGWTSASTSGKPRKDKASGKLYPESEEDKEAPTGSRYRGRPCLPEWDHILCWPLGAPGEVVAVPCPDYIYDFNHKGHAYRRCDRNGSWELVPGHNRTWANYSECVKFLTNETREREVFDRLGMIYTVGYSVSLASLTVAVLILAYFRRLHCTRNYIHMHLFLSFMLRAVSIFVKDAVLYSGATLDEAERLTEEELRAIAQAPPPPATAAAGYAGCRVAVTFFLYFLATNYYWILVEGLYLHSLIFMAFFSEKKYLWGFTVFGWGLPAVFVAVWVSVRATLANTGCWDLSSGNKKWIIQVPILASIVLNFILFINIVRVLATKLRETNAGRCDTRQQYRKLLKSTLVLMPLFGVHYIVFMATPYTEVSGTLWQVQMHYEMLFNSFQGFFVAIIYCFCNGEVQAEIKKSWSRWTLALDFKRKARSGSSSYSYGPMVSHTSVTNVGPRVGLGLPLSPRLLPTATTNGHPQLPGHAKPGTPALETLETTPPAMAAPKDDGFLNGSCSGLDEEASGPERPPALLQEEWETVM
Procedure: as §1
(§2) Here, competition binding assays for the R^0 and RG PTHR1 conformation were performed in membranes prepared from transfected COS-7 cells, as described by Dean et al., Mol Endocrinol 22:156-66, 2008. Data are means of three experiments, each performed in duplicate. Curves were fit to the data using Graph-Pad Prism 4.0.

MC3T3-E1 cells [3] = experiment: cAMP RIA in intact MC3T3-E1 cells; assay type: cell-based, mouse; settings: 30 min, room temperature, IBMX
Procedure: cAMP stimulating activity of these polypeptides was also assessed, using two different methods: a radioimmunoassay (RIA; FIG. 2) and a cAMP responsive element fused to a luciferase gene (FIG. 3). Briefly, the RIA cAMP assays were performed in intact MC3T3-E1 cells, a mouse pre-osteoblastic cell line, in 96-well plates, as described by Okazaki et al. (Proc Natl Acad Sci USA 105:16525-30, 2008). […] The cAMP contents of the HCl lysates were then determined by RIA. Data are means of six experiments, each performed in duplicate. Curves were fit to the data using Graph-Pad Prism 4.0.

rat PTH receptor [4] = target: T3, rat PTH receptor (rat, UniProt P25961 27-591, limits assumed); experiment: radioligand displacement, rat PTHR1, RG conformation
T3 construct: R0 and RG conformations assayed separately by the method of WO 2009/017809 or a similar one; also called rat PTHR1
T3 sequence (looked up): T1 sequence (P25961 27-591)

human PTH-1 receptor [5] = target: T4, human PTH-1 receptor (human, UniProt Q03431 27-593); experiment: radioligand competition, human PTHR1 in COS-7 membranes, R0 conformation
T4 construct: whole, on cells; also called human PTHR1; human PTH receptor
T4 sequence (looked up): T2 sequence (Q03431 27-593)
Procedure: as §2, with “R⁰” for “R^0”

human PTH-1 receptor [6] = target: T4, human PTH-1 receptor; experiment: radioligand competition, human PTHR1 in COS-7 membranes, RG conformation
Procedure: as §2, with “R⁰” for “R^0”

rat PTH receptor [7] = target: T3, rat PTH receptor; experiment: radioligand displacement, rat PTHR1, R0 conformation

Row | Molecule | IC50 (rat PTHR1 (RG)) [pM] | cAMP-stimulating activity after ligand wash-out (MC3T3-E1 cells [1]) | blood calcium levels at later time points vs PTH(1-34) or vehicle [2] | R0 binding at human PTH receptor as compared to PTH(1-34) (human PTHR1 (R0); FIG. 5A) | IC50 (human PTHR1 (R0); R0 conformation, mean of 3 experiments, read-out: Binding human PTHR1 IC50 (Log M) R0 (converted)) [pM] | EC50 (MC3T3-E1 cells [3]) [pM] | cAMP MC3T3-E1 cells Emax (pmole/well) (MC3T3-E1 cells [3]) | cAMP MC3T3-E1 cells EC50 (Log M) (MC3T3-E1 cells [3]; 6 experiments) | IC50 (rat PTH receptor [4]) [pM] | IC50 (human PTH-1 receptor [5]) [pM] | IC50 (human PTH-1 receptor [6]) [pM] | IC50 (rat PTH receptor [7]) [pM]
1 | CC[C@H](C)[C@H](NC(=O)[C@H](CCC(=O)O)NC(=O)[C@H](C)NC(=O)[C@@H](NC(=O)[C@H](Cc1c[nH]cn1)NC(=O)[C@@H](NC(=O)[C@H](CCC(=O)O)NC(=O)[C@H](C)NC(=O)[C@@H](NC(=O)[C@H](CC(C)C)NC(=O)[C@H](Cc1c[nH]cn1)NC(=O)[C@H](Cc1c[nH]cn1)NC(=O)[C@H](CC(C)C)NC(=O)[C@H](Cc1ccccc1)NC(=O)[C@H](Cc1ccccc1)NC(=O)[C@H](CCCNC(=N)N)NC(=O)[C@H](CCCNC(=N)N)NC(=O)[C@H](CCCNC(=N)N)NC(=O)[C@H](CC(C)C)NC(=O)[C@H](CC(=O)O)NC(=O)[C@H](CCC(N)=O)NC(=O)[C@@H](NC(=O)[C@H](Cc1c[nH]c2ccccc12)NC(=O)[C@H](CCCCN)NC(=O)[C@H](C)NC(=O)[C@H](CCCCNC(=N)N)NC(=O)[C@H](CCC(N)=O)NC(=O)[C@H](Cc1c[nH]cn1)NC(=O)[C@H](CCSC)NC(=O)[C@H](CC(C)C)NC(=O)[C@H](CCC(N)=O)NC(=O)[C@@H](NC(=O)[C@H](CCC(=O)O)NC(=O)C(C)(C)NC(=O)[C@@H](NC(=O)[C@H](C)N)C(C)C)[C@@H](C)CC)[C@@H](C)CC)[C@@H](C)CC)[C@@H](C)CC)[C@@H](C)O)C(N)=O [AIB-SP-PTH, [Ala^1,12,Aib^3,Gln^10,Har^11,Trp^14]PTH(1-14)/PTHrP(15-36)] (H-AV[Aib]EIQLMHQ[hArg]AKWIQDLRRRFFLHHLIAEIHTAEI-NH2; N-terminus assumed) | 380 | maintained cAMP-stimulating activity for longer periods of time than PTH(1-34) | increased | enhanced R^0 binding | 1820 | 44 | 62.1 ± 13.3 | −10.4 ± 0.1 | – | – | – | –
2 | B1 | – | – | – | – | – | – | – | – | 450 | 940 | 370 | –
3 | B2 | – | – | – | – | – | – | – | – | 610 | 1400 | 480 | 1400
4 | B3 | – | – | – | – | – | – | – | – | 700 | 680 | 220 | 210
5 | B4 | – | – | – | – | – | – | – | – | 900 | 950 | 450 | 1500
